Experiments:
[1] = target: T1, BoERF1L-His (His-BoERF1L; Methods: His-BoERF1) (Brassica oleracea, UniProt A0A0D3ABA8 1-210); assay: EMSA; unlabeled WTpro at 20x, 30x, 40x competes dose-dependently; EMSA: 10 µL with 2 µg protein, 20 fmol biotin-labeled DNA, 2 µL 5x EMSA/Gel-Shift Binding Buffer (GS005, Beyotime); 6% polyacrylamide gel; salt, pH and temperature not stated; details: protein: recombinant; tags: His (Methods: C-terminal; pET-SUMO vector); label: biotin
[2] = target: T1, BoERF1L-His (His-BoERF1L; Methods: …); assay: EMSA; EMSA: 10 µL with 2 µg protein, 20 fmol biotin-labeled DNA, 2 µL 5x EMSA/Gel-Shift Binding Buffer (GS005, Beyotime); 6% polyacrylamide gel; salt, pH and temperature not stated; details: protein: recombinant, tags: His (Methods: C-terminal; pET-SUMO vector)

T1 sequence (A0A0D3ABA8 entry or part of it): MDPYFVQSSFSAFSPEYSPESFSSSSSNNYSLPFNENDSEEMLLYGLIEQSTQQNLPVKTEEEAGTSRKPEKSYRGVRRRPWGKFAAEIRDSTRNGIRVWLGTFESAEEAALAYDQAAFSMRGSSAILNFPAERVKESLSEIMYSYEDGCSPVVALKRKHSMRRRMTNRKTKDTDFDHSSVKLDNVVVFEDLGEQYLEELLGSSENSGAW

B1: WTpro (dsDNA)
DNA 1: GATACATGTAAGTGCAGGTAGCTCATGACAGAAATTGACGGAACACAGAGTTACTCTGATTCTATA
DNA 2: TATAGAATCAGAGTAACTCTGTGTTCCGTCAATTTCTGTCATGAGCTACCTGCACTTACATGTATC
B1: binds [1].

B2: W7 (dsDNA)
DNA 1: CAGAAATTGACGGAAC
DNA 2: GTTCCGTCAATTTCTG
B2: no binding [2].

B3: W1 (dsDNA)
DNA 1: GTGCAGGTAGCTCATG
DNA 2: CATGAGCTACCTGCAC
B3: no binding [2].

B4: MTpro (dsDNA)
DNA 1: GATACATGTAAGTGCAGGTAGCTCATGCAGAAATTGACGGAACACAGAGTTACTCTGATTCTATA
DNA 2: TATAGAATCAGAGTAACTCTGTGTTCCGTCAATTTCTGCATGAGCTACCTGCACTTACATGTATC
B4: no binding ([2]; label: biotin).

Source: article PMC10556095, “A natural mutation in the promoter of Ms-cd1 causes dominant male sterility in Brassica oleracea”
